Data from US20170166644A1 (SORRENTO THERAPEUTICS, published 2017).
Where a chain is given by its changes, count along the chain named. Each block holds one binder with its values, some of them ahead of it.

Tests used:
VEGFR2 [1] = target: T1, VEGFR2; assay: EC50 measurement, summary table; assay not stated
T1 construct: also called KDR
T1 sequence (P35968 20-764): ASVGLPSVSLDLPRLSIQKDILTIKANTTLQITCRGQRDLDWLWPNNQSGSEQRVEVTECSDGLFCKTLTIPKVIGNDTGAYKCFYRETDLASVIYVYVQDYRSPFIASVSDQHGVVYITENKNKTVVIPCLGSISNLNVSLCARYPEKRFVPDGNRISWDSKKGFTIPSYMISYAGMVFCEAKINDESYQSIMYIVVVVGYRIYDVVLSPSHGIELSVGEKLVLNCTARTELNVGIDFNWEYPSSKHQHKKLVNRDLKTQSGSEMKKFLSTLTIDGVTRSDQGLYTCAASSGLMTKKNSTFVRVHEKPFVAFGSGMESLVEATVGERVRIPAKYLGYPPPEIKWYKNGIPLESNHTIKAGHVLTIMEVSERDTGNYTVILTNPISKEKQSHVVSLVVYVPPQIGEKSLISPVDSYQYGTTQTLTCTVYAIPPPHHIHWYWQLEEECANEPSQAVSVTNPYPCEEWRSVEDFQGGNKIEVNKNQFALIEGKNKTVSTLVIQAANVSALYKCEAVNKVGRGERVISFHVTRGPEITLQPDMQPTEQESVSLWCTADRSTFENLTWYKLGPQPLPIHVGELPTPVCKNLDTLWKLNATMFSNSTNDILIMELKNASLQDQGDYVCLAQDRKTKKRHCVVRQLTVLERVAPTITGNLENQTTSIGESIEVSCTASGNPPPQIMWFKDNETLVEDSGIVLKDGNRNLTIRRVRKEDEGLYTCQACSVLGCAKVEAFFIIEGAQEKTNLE

VEGFR2 on HUVECs [2] = target: T2, VEGFR2 on HUVECs (human, UniProt P35968 20-1356); assay: cell binding to HUVE cells, flow cytometry (FIG. 3 legend); FIG. 3 legend, unrounded value
T2 construct: whole, on cells; also called VEGFR2 receptor in HUVECs; HUVE cells
Procedure: (§1) This example illustrates in vitro data for VK-B8 cellular EC₅₀ measurements. Protocol: 50,000 HUVECs were aliquoted into the wells of a 96-well, v-bottom plate in 100 ul FACS Buffer (PBS+2% FBS). A twelve point, 3× dilution curve of VK-B8 was made in FACS Buffer starting at 50 μg/ml (3.33×10⁻⁷ M). Cells were spun down, washed 1× with FACS Buffer, and then resuspended in 25 μl of antibody solution in triplicate. […] Cells were further incubated for 0.5 hr. and then washed 1× with FACS Buffer. Cells were resuspended in 25 μl FACS Buffer and the median fluorescence intensity in the FL2-H channel was determined using the Intellicyt HTFC flow cytometer.
(§2) Results: The cell binding EC₅₀ for VK-B8 on HUVECs was determined to be 1.3 nM. Data was analyzed and plotted in Graph Pad Prizm using non-linear regression fit. Data points are shown (FIG. 4) as the median fluorescence intensity (MFI) of positively labeled cells +/− Std Error.

soluble VEGFR2-Fc [3] = assay: blocking of VEGF binding to soluble VEGFR2-Fc (FIG. 2)
VEGFR2 on HUVECs [4] = target: T2, VEGFR2 on HUVECs; assay: flow cytometry on HUVECs, MFI against antibody concentration, non-linear fit (Example 6); unit taken from the axis label 'Antibody Conc (M)', log scale
Procedure: as §1, §2

VEGFR2 on HUVECs [5] = target: T2, VEGFR2 on HUVECs; assay: cell-based or functional assay
VEGFR2 [6] = target: T1, VEGFR2; assay: IC50 measurement, summary table; assay not stated
soluble VEGFR2-Fc [7] = assay: blocking of VEGF binding to soluble VEGFR2-Fc, VK-B8 titrated, readout OD 450; plate format not described; unit taken from the axis label 'VK-B8 [log M]'
VEGFR2 [8] = target: T1, VEGFR2; assay: Biacore

T2 sequence (P35968 20-1356): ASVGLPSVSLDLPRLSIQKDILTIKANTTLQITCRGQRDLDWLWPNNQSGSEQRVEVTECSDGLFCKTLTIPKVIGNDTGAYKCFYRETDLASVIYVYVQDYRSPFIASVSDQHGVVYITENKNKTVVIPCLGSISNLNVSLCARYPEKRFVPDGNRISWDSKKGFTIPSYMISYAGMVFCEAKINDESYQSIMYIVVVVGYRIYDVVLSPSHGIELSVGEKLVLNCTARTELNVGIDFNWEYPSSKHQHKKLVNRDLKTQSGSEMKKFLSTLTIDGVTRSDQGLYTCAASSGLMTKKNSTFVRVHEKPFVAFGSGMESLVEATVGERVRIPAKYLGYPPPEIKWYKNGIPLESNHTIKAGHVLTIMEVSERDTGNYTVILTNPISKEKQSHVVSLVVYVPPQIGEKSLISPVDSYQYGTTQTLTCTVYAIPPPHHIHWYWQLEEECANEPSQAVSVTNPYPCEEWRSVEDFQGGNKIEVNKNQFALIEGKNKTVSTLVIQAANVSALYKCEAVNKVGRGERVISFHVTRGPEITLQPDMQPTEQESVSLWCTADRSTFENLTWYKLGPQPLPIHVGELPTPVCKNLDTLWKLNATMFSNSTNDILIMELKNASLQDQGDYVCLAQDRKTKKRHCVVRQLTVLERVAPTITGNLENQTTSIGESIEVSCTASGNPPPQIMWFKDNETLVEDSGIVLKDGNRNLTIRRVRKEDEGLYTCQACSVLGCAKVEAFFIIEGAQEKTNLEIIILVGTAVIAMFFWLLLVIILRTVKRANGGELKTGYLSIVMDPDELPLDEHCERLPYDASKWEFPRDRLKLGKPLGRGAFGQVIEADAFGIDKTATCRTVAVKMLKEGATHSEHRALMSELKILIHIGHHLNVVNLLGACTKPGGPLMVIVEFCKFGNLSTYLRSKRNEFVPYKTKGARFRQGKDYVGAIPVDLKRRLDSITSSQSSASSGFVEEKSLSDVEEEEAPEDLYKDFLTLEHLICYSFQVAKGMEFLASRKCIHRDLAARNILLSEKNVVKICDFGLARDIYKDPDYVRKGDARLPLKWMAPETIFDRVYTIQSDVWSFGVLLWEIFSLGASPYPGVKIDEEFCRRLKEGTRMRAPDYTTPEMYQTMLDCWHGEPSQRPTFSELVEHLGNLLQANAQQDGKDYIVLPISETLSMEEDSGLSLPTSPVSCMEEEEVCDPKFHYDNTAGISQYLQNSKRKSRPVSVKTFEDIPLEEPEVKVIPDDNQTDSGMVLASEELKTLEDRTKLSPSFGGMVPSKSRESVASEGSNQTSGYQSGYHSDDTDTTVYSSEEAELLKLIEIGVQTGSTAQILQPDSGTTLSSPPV
Chain of soluble VEGFR2-Fc (P35968 20-764): as the sequence (P35968 20-764) above

B1: VR-B2 (antibody, V domains shown)
VH: EVQLLESGGGLVQPGGSLRLSCAASGFTFSSYAMHWVRQAPGKGLEWVAVISYDGSNKYYADSVKGRFTISRDNSKNTLYLQMNSLRAEDTAVYYCARDLGAASYWYFDLWGRGTLVTVSS
VL: DIQLTQSPPSVSASVGDRVTITCRASQDISTWLAWYQQKPGSAPKVLIYAASTFQSGVPSRFRGSGSGTYFTLTISGLQPEDFATYYCQQGNSFPPTFGQGTKLEIK
- EC50 (VEGFR2 [1]): 0.747 nM

B2: VK-B8 (antibody, V domains shown)
VH: QVQLVQSGAEVKKPGSSVKVSCKAYGGTFGSYGVSWVRRAPGQGLEWMGRLIPIFGTRDYAQKFQGRVTLTADESTNTAYMELSSLRSEDTAVYYCARDGDYYGSGSYYGMDVWGQGTLVTVSS
VL: ETTLTQSPATLSVSPGERATVSCRASQSLGSNLGWFQQKPGQAPRLLIYGASTRATGIPARFSGSGSGTEFTLTISSLQSEDFAVYFCQQYNDWPITFGQGTRLEIK
notes: The printed VH starts with MA; also called STI-A0168; anti-VEGFR2 antibody VK-B8
- EC50 (VEGFR2 [1]): 0.25 nM
- EC50 (VEGFR2 on HUVECs [2]): ~1.3 nM
- IC50 (soluble VEGFR2-Fc [3]): ~0.77 nM
- EC50 (VEGFR2 on HUVECs [4]): 1.3 nM
- IC50 for VK-B8 inhibition of VEGF-induced p44/p42 MAPK (Erk1/2) phosphorylation in HUVECs, phospho-ELISA (VEGFR2 on HUVECs [5]): 0.08 nM
- IC50 value for the inhibition of VEGF-induced HUVEC cell migration by VK-B8 (FIG. 14 legend) (VEGFR2 on HUVECs [5]): 0.53 nM
- IC50 value for the inhibition of VEGF-induced HUVEC cell proliferation by VK-B8 (FIG. 13 legend) (VEGFR2 on HUVECs [5]): 14.9 nM
- IC50 value for the inhibition of VEGF-induced HUVEC migration by VK-B8 (modified Boyden chamber) (VEGFR2 on HUVECs [5]): 0.5 nM
- IC50 value for the inhibition of VEGF-induced HUVEC proliferation by VK-B8 (VEGFR2 on HUVECs [5]): 14 nM
- IC50 (VEGFR2 [6]): 2.04 nM
- IC50 (soluble VEGFR2-Fc [7]): 0.771 nM
- Kd (VEGFR2 [8]): 0.121 nM
- koff (VEGFR2 [8]): 8.73e-05 s⁻¹
- kon (VEGFR2 [8]): 724000 M⁻¹ s⁻¹

B4: VB-A9 (antibody, V domains shown)
VH: EVQLVESGGGLVKPGGSLRLSCAASGFTFSSYSMNWVRQAPGKGLEWVSSISSGSSYIYYADSLKGRFTISRDNAKNSLYLQMNSLRAEDTAVYYCARDFGNWGQGTLVTVSS
VL: QSALTQPRSVSASPGQSVTISCTGTSSDVGGYDYVSWYQQHPGKAPKLMIYEVSNRPSGVSNRFSGSKSGNTASLSISGLQAEDEADYYCSSYTSTSSPVVFGGGTKLTVL
- EC50 (VEGFR2 [1]): 0.25 nM
- IC50 (VEGFR2 [6]): 2.05 nM
- Kd (VEGFR2 [8]): 3.02 nM
- koff (VEGFR2 [8]): 0.000496 s⁻¹
- kon (VEGFR2 [8]): 164000 M⁻¹ s⁻¹

B5: RV-H5 (antibody, V domains shown)
VH: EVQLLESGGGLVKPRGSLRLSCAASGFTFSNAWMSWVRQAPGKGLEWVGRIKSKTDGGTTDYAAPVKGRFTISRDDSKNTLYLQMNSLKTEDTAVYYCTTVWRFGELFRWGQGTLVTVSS
VL: QAGLTQPPSVSVSPGQTASITCSGDKLGDKYISWYQQKPGQSPVMVIFQDTKRPSGIPERFSGSNSGNTATLTISGTQAMDEADYYCQAWDTSTVFGGGTKLTVL
- EC50 (VEGFR2 [1]): 0.323 nM
- IC50 (VEGFR2 [6]): 5.79 nM
- Kd (VEGFR2 [8]): 0.815 nM
- koff (VEGFR2 [8]): 0.00225 s⁻¹
- kon (VEGFR2 [8]): 2.76e+06 M⁻¹ s⁻¹

B6: VB-E1 (antibody, V domains shown)
VH: QVQLVESGAEVKKPGASVKVSCKASGYTFTNYYIHWVRQAPGQGLEWMGIINPSSGSTNYAQKFQGRVTMTRDTSTSTVYMELSSLRSEDTAVYYCARQRWDLLDDAFDIWGQGTMVTVSS
VL: DIVMTQSPDSLAVSLGERATINCKTSQSVLYNANNKNYLNWYQQKPGQPPKLLIYWASARESGVPDRFSGSGSGTDFTLTIRSLQPDDFATYYCQQAISFPLTFGGGTKVEIK
- EC50 (VEGFR2 [1]): 0.5 nM

B8: VB-A3 (antibody, V domains shown)
VH: QVQLVQSGAEVKKPGASVKVSCKASGHTFNYYYMHWVRQAPGQGLEWMGQTNLNSGGTNYAPKFQGRVTMTRDTSISTAYMELSSLRSDDTAVYYCANLNSGWFHFENWGQGTLVTVSS
VL: SYELTQPPSVSVAPGKTASITCGGNNIGSKSVHWYQQKPGQAPVLVIYYDRDRPSGIPERFSGSNSGNTATLTISRVEAGDEADYYCQVWDSSSYHPVFGGGTKLTVL
- Kd (VEGFR2 [8]): 3.09 nM
- koff (VEGFR2 [8]): 0.012 s⁻¹
- kon (VEGFR2 [8]): 3.88e+06 M⁻¹ s⁻¹

Further lines, results first:

- EC50 (VEGFR2 [1]): 24.3 nM
B3: VR-B4 (antibody, V domains shown)
VH: B2 VH with L119T
VL: SYELTQPASVSGSPGQSITISCTGSSSDVGGYNFVSWYRQHAGKAPKLMIYDVTNRPSGVSTRFSGSKSGTTASLTISGLQPDDEAHYYCSSYTTTSTWVFGGGTKLTVL

- EC50 (VEGFR2 [1]): 1.29 nM
- IC50 (VEGFR2 [6]): 9.32 nM
B7: VR-E3 (antibody, V domains shown)
VH: EVQLVESGGGLVKPGGSLRLSCAASGFTFSSYSMNWVRQAPGKGLEWVSSISSASSYIYYADSVKGRFTISRDNAKKSLYLQLNSLTVEDTAVYYCAREYWGSPDYWGRGTLVTVSS
VL: QPVLTQPPSASGSPGQSVTISCTGTSSDVGGYNYVSWYQQHPGKAPKLMIYDVNNRPSGVPDRFSGSKSGNTASLTISGLQAEDEADYYCSSYTSSSTRVFGGGTKLTVL
